From the supplement of paper PMC7125110 come the findings set out here.

± gives the standard error. Variants at the floor of the assay were thinned out.

The chains are these.
B1: glmS ribozyme (parent)
chain: AUAAAAGCGCCAGAACUACAGAAAUGUAGUUGACGAGGAGGAGGUUUAUCGAAUUUUCGGCGGAUGCCUCCAAA

The variants in one series derive from B1. As to the kind of experiment: self-cleavage kobs at 640 uM GlcN6P; higher = faster cleavage; RNA array. To be noted: with glucosamine-6-phosphate. The essentials:
(§1)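 Tiles bearing barcoded ribozyme variants, transcribed in situ by E. coli RNA polymerase on sequenced MiSeq chips, were imaged over ~14 h at 37 °C using a hybridised Cy3 probe. Glucosamine-6-phosphate was supplied at 40 μM to 10 mM in HEPES/KCl/Mg(OAc)2 buffer. kobs came from one- or two-exponential decay fits to normalised per-tile medians, and weighted Michaelis–Menten fits then provided kcat and KM.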
For C10G C11G A33U C68G, the “self-cleavage kobs at 640 uM GlcN6P” value came to 4.85e-05 ± 2.2e-05 s⁻¹.

Turning to A14U G41A U45A, the “self-cleavage kobs at 640 uM GlcN6P” value was found to be 6.25e-05 ± 2.9e-05 s⁻¹.

Turning to A52C C67U C71G, the “self-cleavage kobs at 640 uM GlcN6P” value stood at 5.68e-05 ± 2.4e-05 s⁻¹.

Regarding U45G U56C, the “self-cleavage kobs at 640 uM GlcN6P” value amounted to 0.000204 ± 4.5e-05 s⁻¹.

G13A G40A G62A: the “self-cleavage kobs at 640 uM GlcN6P” value is less than 1e-05 s⁻¹.

In the case of C10G C11A C58G G63U C68A, the “self-cleavage kobs at 640 uM GlcN6P” value worked out at 0.000138 ± 3.5e-05 s⁻¹.

Turning to C8U G35A G60C U65G, the “self-cleavage kobs at 640 uM GlcN6P” value is less than 1e-05 s⁻¹.

On to C8U U47G, for which the “self-cleavage kobs at 640 uM GlcN6P” value was less than 1e-05 s⁻¹.

On to A15U U55C C70U, for which the “self-cleavage kobs at 640 uM GlcN6P” value was 4.5e-05 ± 2.2e-05 s⁻¹.

With G21U U47G, the “self-cleavage kobs at 640 uM GlcN6P” value was determined as 0.00247 ± 0.00049 s⁻¹.

Regarding C10U G35U, the “self-cleavage kobs at 640 uM GlcN6P” value was less than 1e-05 s⁻¹.

For the variant U30G U56A C68G, the “self-cleavage kobs at 640 uM GlcN6P” value worked out at 5.24e-05 ± 2.3e-05 s⁻¹.

With U30C C34U U57A, the “self-cleavage kobs at 640 uM GlcN6P” value was less than 1e-05 s⁻¹.

For the variant G9U C10G A15G G38U A39G A52U, the “self-cleavage kobs at 640 uM GlcN6P” value was less than 1e-05 s⁻¹.

Take A39G U49A C68U: the “self-cleavage kobs at 640 uM GlcN6P” value was less than 1e-05 s⁻¹.

For C34U A36G G44A C58A C68U, the “self-cleavage kobs at 640 uM GlcN6P” value was less than 1e-05 s⁻¹.

For C11U A14G A39C, the “self-cleavage kobs at 640 uM GlcN6P” value was 0.000206 ± 5.2e-05 s⁻¹.

As for G9C C34U U49C U65G, the “self-cleavage kobs at 640 uM GlcN6P” value is less than 1e-05 s⁻¹.

Take C16U U31C G32C G44A U49G C61G U65A: the “self-cleavage kobs at 640 uM GlcN6P” value is less than 1e-05 s⁻¹.

In the case of A6U G13A C71A, the “self-cleavage kobs at 640 uM GlcN6P” value was less than 1e-05 s⁻¹.

Variants of B1 are the subject of another series. In words: self-cleavage kobs at 2500 uM GlcN6P; higher = faster cleavage; RNA array. As to conditions: with glucosamine-6-phosphate. In short, it runs like this: as §1
In the case of C10G C11G A33U C68G, the “self-cleavage kobs at 2500 uM GlcN6P” value turned out to be 9.09e-05 ± 3.3e-05 s⁻¹.

For the variant A14U G41A U45A, the “self-cleavage kobs at 2500 uM GlcN6P” value amounted to 0.000195 ± 5.4e-05 s⁻¹.

Consider U31A U46C, for which the “self-cleavage kobs at 2500 uM GlcN6P” value was found to be 0.000756 ± 0.00018 s⁻¹.

With A42U A53G C61A C67G, the “self-cleavage kobs at 2500 uM GlcN6P” value was less than 1e-05 s⁻¹.

For G7U G38U G66U, the “self-cleavage kobs at 2500 uM GlcN6P” value was less than 1e-05 s⁻¹.

Regarding A52C C67U C71G, the “self-cleavage kobs at 2500 uM GlcN6P” value came to 9.24e-05 ± 3.5e-05 s⁻¹.

As for U45G U56C, the “self-cleavage kobs at 2500 uM GlcN6P” value was 0.000272 ± 7.1e-05 s⁻¹.

Turning to G13A G40A G62A, the “self-cleavage kobs at 2500 uM GlcN6P” value was less than 1e-05 s⁻¹.

For C10G C11A C58G G63U C68A, the “self-cleavage kobs at 2500 uM GlcN6P” value worked out at 0.000117 ± 3.3e-05 s⁻¹.

Consider A15G G32A C68U, for which the “self-cleavage kobs at 2500 uM GlcN6P” value turned out to be 0.000247 ± 8.7e-05 s⁻¹.

A42G A48U U56A: the “self-cleavage kobs at 2500 uM GlcN6P” value was 0.000146 ± 4.2e-05 s⁻¹.

Consider A15U U55C C70U, for which the “self-cleavage kobs at 2500 uM GlcN6P” value turned out to be 9.45e-05 ± 3.3e-05 s⁻¹.

G13C A42U G43C G51C U57G A64G C71U: the “self-cleavage kobs at 2500 uM GlcN6P” value was less than 1e-05 s⁻¹.

Take U30A A36U C71A: the “self-cleavage kobs at 2500 uM GlcN6P” value is less than 1e-05 s⁻¹.

In the case of C10U A15G U31A G32U U65G, the “self-cleavage kobs at 2500 uM GlcN6P” value was less than 1e-05 s⁻¹.

For C10U G35U, the “self-cleavage kobs at 2500 uM GlcN6P” value was less than 1e-05 s⁻¹.

In the case of C34A A39C G66C C71A, the “self-cleavage kobs at 2500 uM GlcN6P” value was less than 1e-05 s⁻¹.

As for A12C A15U G41A A53C C58U U65A, the “self-cleavage kobs at 2500 uM GlcN6P” value was less than 1e-05 s⁻¹.

With G9U C10G A15G G38U A39G A52U, the “self-cleavage kobs at 2500 uM GlcN6P” value was less than 1e-05 s⁻¹.

For the variant C34U A36G G44A C58A C68U, the “self-cleavage kobs at 2500 uM GlcN6P” value is less than 1e-05 s⁻¹.

As to C11U A14G A39C, the “self-cleavage kobs at 2500 uM GlcN6P” value turned out to be 0.000528 ± 0.00014 s⁻¹.

Turning to C16U U31C G32C G44A U49G C61G U65A, the “self-cleavage kobs at 2500 uM GlcN6P” value was less than 1e-05 s⁻¹.

As to C8A A53C U55C G60U C68G, the “self-cleavage kobs at 2500 uM GlcN6P” value is less than 1e-05 s⁻¹.

On to A52U C67A C71U, for which the “self-cleavage kobs at 2500 uM GlcN6P” value turned out to be 7.56e-05 ± 3.1e-05 s⁻¹.

Variants of B1 are the subject of another series. In words: self-cleavage kobs at 10000 uM GlcN6P; higher = faster cleavage; RNA array. As to conditions: with glucosamine-6-phosphate. The essentials: as §1
For U45G U56C, the “self-cleavage kobs at 10000 uM GlcN6P” value turned out to be 0.000987 ± 0.00015 s⁻¹.

For the variant C8U U47G, the “self-cleavage kobs at 10000 uM GlcN6P” value was less than 1e-05 s⁻¹.

With U30A A36U C71A, the “self-cleavage kobs at 10000 uM GlcN6P” value is less than 1e-05 s⁻¹.

As to C10U G35U, the “self-cleavage kobs at 10000 uM GlcN6P” value is less than 1e-05 s⁻¹.

For the variant G9U C10G A15G G38U A39G A52U, the “self-cleavage kobs at 10000 uM GlcN6P” value was less than 1e-05 s⁻¹.
